Results on two proteins are retold here after patent US20040053355A1, “Modular approach to on-line synthesis, drug discovery and biochemical transformations using immobilized enzyme reactors” (priority 2000, published 2004).

A word on the Km: it is the concentration of substrate that gives half-maximal velocity. As a reminder, the Vmax is the rate approached at saturating substrate.

Substrate in series [1]: NCCc1ccc(O)cc1
In words: On-line DBH-Glut-P immobilized enzyme reactor (DBH-Glut-P IMER) HPLC system. The series is classed as biochemical, bovine. To be noted: other: DBH-IMER (DBH-Glut-P IMER), 0.3 ml/min, contact time 10 min, 37° C. The text has this:
DBH immobilized on the IAM or Glut-P stationary phase was packed into a 1 cm×10 mm guard (Regis Technologies). The guard was placed in a holder and the resulting column connected to a chromatographic system. THE DBH-IAM-IMER and the DBH-Glut-P-IMER was washed with sodium acetate buffer [0.1M, pH 5.5] and sodium acetate buffer [0.1M, pH 6.0], respectively. The eluent from both IMERs was collected in order to determine if any of the DBH was being washed off the columns. The Biorad assay was utilized to measure the amount of non-immobilized enzyme. When the columns were not in use they were washed with sodium acetate buffer at the respective pHs and stored at 4° C.
Pumps 2 and 3 on system 2 and 3 were stopped. […]
The enzymatic activity on the DBH-Glut-P was determined by quantification of the amount of product formed with a given substrate. […] The kinetic parameters were determined using standard Michaelis-Menten approach. […] The rates of reaction (Vmax) were calculated using […]mol/mg/min. Results are expressed as mean±standard error of the mean (SEM). […]

Substrate in series [2]: NCCc1ccc(O)cc1
In words: DBH immobilized onto Glut-P stationary phase (DBH-Glut-P, DBH-Glut-P-SP), batch assay. It counts as biochemical, bovine. As to conditions: other: DBH-Glut-P (DBH-Glut-P-SP); 37.0 °C. The method, then:
The enzyme was assayed as follows: four different solutions were prepared A, B, C and D (final concentration). (A) 500 μL of enzyme solution (10 μg/ml); B: 275 μL sodium acetate buffer (10 mM, pH 5.5), 50 μL cupric sulphate (5 μM); C: 25 μL catalase (5 μg/ml), 50 μL ascorbic acid (10 mM), 50 μl sodium fumarate (10 mM); D: 50 μl substrate (5 mM). Solution B was added to solution A, the resulting solution was mixed for 1 min. Solution C was added and the resulting solution was mixed for an additional minute. The reaction was started with the addition of the substrate (D), after which the reaction solution was incubated for 5 min at 37° C. in a shaking bath. […]
The packing material was washed three times with sodium acetate buffer (0.1M, pH 6). […] The enzyme solution (8-10 μg in 1 ml sodium acetate buffer] was added to the packing material, the mixture was vortexed for 2 min and then placed on a shaker/rotator for 6 h at ambient temperature. At the end of 6 h, the suspension was centrifuged, the supernatant decanted and the packing material washed three additional times with the buffer. The amount of residual enzyme was determined utilizing the same procedure as that carried out for the enzyme immobilized onto IAM.

B1: DBH-Glut-P IMER (immobilized dopamine beta-hydroxylase) (Bos taurus) (protein)
chain: MQVPSPSVREAASMYGTAVAVFLVILVAALQGSAPAESPFPFHIPLDPEGTLELSWNISYAQETIYFQLLVRELKAGVLFGMSDRGELENADLVVLWTDRDGAYFGDAWSDQKGQVHLDSQQDYQLLRAQRTPEGLYLLFKRPFGTCDPNDYLIEDGTVHLVYGFLEEPLRSLESINTSGLHTGLQRVQLLKPSIPKPALPADTRTMEIRAPDVLIPGQQTTYWCYVTELPDGFPRHHIVMYEPIVTEGNEALVHHMEVFQCAAEFETIPHFSGPCDSKMKPQRLNFCRHVLAAWALGAKAFYYPEEAGLAFGGPGSSRFLRLEVHYHNPLVITGRRDSSGIRLYYTAALRRFDAGIMELGLAYTPVMAIPPQETAFVLTGYCTDKCTQLALPASGIHIFASQLHTHLTGRKVVTVLARDGRETEIVNRDNHYSPHFQEIRMLKKVVSVQPGDVLITSCTYNTEDRRLATVGGFGILEEMCVNYVHYYPQTQLELCKSAVDPGFLHKYFRLVNRFNSEEVCTCPQASVPEQFASVPWNSFNREVLKALYGFAPISMHCNRSSAVRFQGEWNRQPLPEIVSRLEEPTPHCPASQAQSPAGPTVLNISGGKG
notes: purchased
As to B1, in series [1], the Km stood at 2760 µM and the maximum rate (Vmax) is 0.079 µmol/mg/min.

B2: dopamine beta-hydroxylase immobilized onto Glut-P (DBH-Glut-P) (Bos taurus) (protein)
chain: MQVPSPSVREAASMYGTAVAVFLVILVAALQGSAPAESPFPFHIPLDPEGTLELSWNISYAQETIYFQLLVRELKAGVLFGMSDRGELENADLVVLWTDRDGAYFGDAWSDQKGQVHLDSQQDYQLLRAQRTPEGLYLLFKRPFGTCDPNDYLIEDGTVHLVYGFLEEPLRSLESINTSGLHTGLQRVQLLKPSIPKPALPADTRTMEIRAPDVLIPGQQTTYWCYVTELPDGFPRHHIVMYEPIVTEGNEALVHHMEVFQCAAEFETIPHFSGPCDSKMKPQRLNFCRHVLAAWALGAKAFYYPEEAGLAFGGPGSSRFLRLEVHYHNPLVITGRRDSSGIRLYYTAALRRFDAGIMELGLAYTPVMAIPPQETAFVLTGYCTDKCTQLALPASGIHIFASQLHTHLTGRKVVTVLARDGRETEIVNRDNHYSPHFQEIRMLKKVVSVQPGDVLITSCTYNTEDRRLATVGGFGILEEMCVNYVHYYPQTQLELCKSAVDPGFLHKYFRLVNRFNSEEVCTCPQASVPEQFASVPWNSFNREVLKALYGFAPISMHCNRSSAVRFQGEWNRQPLPEIVSRLEEPTPHCPASQAQSPAGPTVLNISGGKG
notes: purchased
Take B2: in series [2], the Michaelis constant (Km) came to 1040 µM and the Vmax was determined as 0.112 µmol/mg/min.
